Results reported in the nanobody polyreactivity screen of Harvey et al. (2022).

Assay: yeast display, Sf9 membrane polyspecificity reagent, FACS + sequencing; frameworks hold sequencing errors
How it was run: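 Sorting gates, low and high (top ~1%), were placed on anti-HA fluorescence to track expression and on streptavidin fluorescence to track reagent binding. A clone's polyreactivity label is taken from the gate it came out of. The reagent was 10% biotinylated, detergent-solubilized Sf9 membrane, applied for 1 hour at 4 °C to galactose-induced yeast display cells.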

Sequence	polyreactivity (PSR sort gate)
QVQLQESGDGLVQAVGSLRLSCAASGYISGYYYMGWYRQAPGKERELVAGIDAFGSSTNYADCVKGRFTISRDNAKTTVYLPPNSPKPEDTAVYYCAAEYDDWDYHWYWGQGTQVTVSS	low polyreactivity
QVQLQESGGDLEQAGGSLRLSCTASGTISDVRDMGWYRQAPGKERELVATISYVTITYYSDSVKGRFTISRASEKHRVSADDEPETGRYRGVLLRYYWGLGTQVTVSS	low polyreactivity
QVQLQESGGDLEQAGGSLRLSCTASGTISDVRVMGWYRQAPGKERELVATISYVTITYYADSVKGRFTISRDSEKHRVSADDEPESGRYRGVLLRYYWGLGTQVTVSS	low polyreactivity
QVQLQESGGGLEHAGGSLRLSCAASGNIFLSIFMGWYRQAPGKEREFVAGIGSGTNTNYADSVKGRFTISRDNANNTVYLQMNSLKPEDTAVYYCNAVWGSHYPTYAKLSRDYWGQGTQVTVSS	high polyreactivity
QVQLQESGGGLEQAGGCLRLSCAASGSIFTYAVMGWYRQAHGKEHELVATIDTGSSTYYADSVKGRISISRDNAKNTLYLQMNSLKPEDTEVYYCAVNTYCRVRYRYWVQGTQVTVSS	high polyreactivity
QVQLQESGGGLEQAGGDLRLSCAASGNIFRDYIMGWYRQAPGKEREFVAGIDRGANTNYADSVKGRFTISRDNAKNTVYLQMNSLKPEDTAVYYCAVHTAIVADFIYWGQGTQVTVSS	low polyreactivity
QVQLQESGGGLEQAGGSLRLSCAASGIIFDNPNMGWYRQAPGKERELVATINSGATTNYADSVKGRFTISRDNAKNTVYLQMNSLIPEDTAVYYCAVDLSPTYFYYWGQGTQVTVSS	high polyreactivity
QVQLQESGGGLEQAGGSLRLSCAASGYISHIGTMGWYRQAPGKEREFVATIVVGSTTNYADSVKRRFTISRDNAKNTVYLQPESGRYRGVLLRGWLLAVGKFTYWGQGTQETVSS	low polyreactivity
QVQLQESGGGLEQAGGSLRLSCAESGIIFDNPNMGWYRQAPGKERELVATINSGATTNYADSVKGRFTISRDNAKNTVYLQMNSLIPEDTAVYYCSVDLSPTYFYVWGQGTQVTVSS	high polyreactivity
QVQLQESGGGLLQAGGSLRLSCAASGSISQYIFMGWYRQAPGKEREFVAGIGYGGTTNYADSVTGRFTISRDNAKNTVYLQMNSLKPEDTAMYYCSAREATEFYLYYWGQGTQVTVSS	low polyreactivity
QVQLQESGGGLMQAGGNLRLSCAASGYISTHYDMDWSRQAPGKERELVARIDDGAITNYADSVKGRFTISRDNATNTVYLQMNSLKPEDTAVYYCAVYSGDDYYHDYWGQGTQVTVSS	low polyreactivity
QVQLQESGGGLMQAGGNLRLSCAASGYISTHYYMHWYRQAPGKERELVARIDDGAITNYADSVKGRFTISRDNAKNTVYLLMNSLKPEDTAVYYCAVYSGDDYYHDFWGQGTKVTVSS	low polyreactivity
QVQLQESGGGLVHACGSLRPSCAASGSISDSWTMSWYRQAPGKEREFVAGITWGGTTNYADSVKGRFTISRDNAKNTVYLQMNSLKPEDSAVYYCNARQRTYYRTHRIRHKGNGYWGQGTQVTVSS	low polyreactivity
QVQLQESGGGLVKAGGDLRLSCAASGNIFRDYIMGWYRQAPGKEREFVAGIDRGANTNYADSVKGRFTISRDNAKNTVYLQMNSLKPVDTAVYYCGVHTAIVPDFIYWGQGTQVTVSS	low polyreactivity
QVQLQESGGGLVLAGGSLRLSCAASGSISAQAYMGWDRQAPGKEREHVAGINYGDNTNYADSVKGRFTISRDNEHRVSADEQPETGRYRVVLLRGFLELFYYYIYWGQGTQVTVSS	high polyreactivity
QVQLQESGGGLVQAGGCLRLRCAASRNISGSSDLGWYHQAPGKEREFVASMTSGGTTYYADSVKGRFTISRDNAKYTVYLQMKSQKTEDTAVYYCAVGDPADAEFGYWGQGTQVTVSS	low polyreactivity
QVQLQESGGGLVQAGGCLRLSCAASGSIFDPDYMGWYHQAPGKESELVASISLGRITYYADSVKGRFTINRDNAKNTVYLQMNSLKPEDTAVYYCAVRVETIYYYSYWGQGTQVTVSS	high polyreactivity
QVQLQESGGGLVQAGGRLPMSFAASGNIFDADIMGWYRQAPGKERELVASITDGRRTNYADSVKGRYTTSRDSEKNTVYLQMNSLKPEDTAVYYCAAIAYPVVPTYFDYDSDYFHWGQGTQVTVSS	high polyreactivity
QVQLQESGGGLVQAGGSLCLSCAASGTIFFDRDMGWYRQAPGKEREFVAAINPGGSAYYADSVKGRLPLAAITHTVYLQRNSLKPEVTAVYYCAAKLFDVYGYYYWGQGTDVTVSS	low polyreactivity
QVQLQESGGGLVQAGGSLGCAASGNISTRSEMGWYRQAPGKDREFVATINSGGITNYADSVNGRFTISRDNAKKTVYLRMNSLKTEDTAVYYRAVFGYLSDPNDYCGQGTQVTVSS	low polyreactivity
QVQLQESGGGLVQAGGSLLSCAASGTISWVDEMGWYRQAPGNERELVAGIAGGGNTNYADSVKGRFTISRDNAKNTVYLQMNSLDTAVYYCAGWDYTGNVVTGDYWGQGTQVTVSS	high polyreactivity
QVQLQESGGGLVQAGGSLLSCAASGTISYYREMGWSRQSPGKQRELVAGIGVGTITYYADSVKGRFTISRDNAKKTVFLQMNSLNPEDTAVYYCAAHIDGNDSHAYWGQGTQVTVSS	low polyreactivity

Sequence	polyreactivity (PSR sort gate)
QVQLQESGGGLVQAGGSLRKSCAASGYIFTQYGMGWYRQGPGKERKFVATISYGGNTNYADSVKGRFTISRDNAKNTVYLQLNSLKPEDTAVYSCATKSVGYRKYWSGDIYDYWGQGTQVTVSS	low polyreactivity
QVQLQESGGGLVQAGGSLRLICAASGTISTDSYMGWYRQAPGKERKFVATIGYGGITYYADSVNGRSTISRDSAKNTVYLQMNSLKPDDTAVYYCEVNSYYPYHYWYWGRGTQVTVSS	high polyreactivity
QVQLQESGGGLVQAGGSLRLRCAASGSISRLDYMGWYRQASGKELELVAAIDNGSTTYYADSVKGRLTISRDNEKYTVYLKMNSLKPEDTAVYFCAAVRGRGGTHAYWGQGTQVTVSG	low polyreactivity
QVQLQESGGGLVQAGGSLRLSCAARGSICLDQPMGWYRQSPCKDPELVATIGQGGNTNYADSVKGRFTISRDNEKNTVYLYMTSLKPEDTAVYYCAVVYFYNYAYHYYWGQGTQVTVCS	low polyreactivity
QVQLQESGGGLVQAGGSLRLSCAASCTISQEDCMGWYRQAPGKVREFVAAIGLGSNTNYADSLKGRFTISRDNAKNTVYLQMNRLKPEDTAVYYCAVSVWQYSDHVYRGQGTQVTVSS	low polyreactivity
QVQLQESGGGLVQAGGSLRLSCAASGDNLEADDMGWYRQAPGKERELVASITDGGSTNCADSMKGRSTICRDNAKITVYLQMNSLKLEDTAVYYCAAIAYPDVPTYFDYDSDYFYWGQGTLVTVSS	high polyreactivity
QVQLQESGGGLVQAGGSLRLSCAASGNIFLGDTMGWYRQAPGKEREFVAGIARGGNPYYADSVKGRFTISRNNAKNTVYLQKNSLKAEDTAVHYCAVQRSHASDYNYWGQGTQVTVSS	low polyreactivity
QVQLQESGGGLVQAGGSLRLSCAASGSIANLIAKGWSRQAQRKEREFVAAIGPGANTNYADSVKGRFTISRDNANNTVYRQMNSLKPEDTAVYYCAVDYYGEAVYHYWGQGTQVTVSS	high polyreactivity
QVQLQESGGGLVQAGGSLRLSCAASGSIFDGFYMGWYRQAPGKEREFVAAISYGASTYYADSVKGRFTVSRDNAKNSVYLQMNSLKPEDTAVYYCAVYDELYHVLVYWGRGTQVTVSS	low polyreactivity
QVQLQESGGGLVQAGGSLRLSCAASGSIFDYVSMGWYRQAPGEERELVVTITLGSNTYYADSVKGRFTISSDIAKNTVYLQMNSLNPVDTAVYYCAASALWGYVYPYWGLGTQVTVSS	high polyreactivity
QVQLQESGGGLVQAGGSLRLSCAASGSIFLFYTMGWYRQAPVKEREFVAGITLGTTTYNADSVKGRFTISRDNVKNTVYLQMNSLKPEDTAVYYCAVAVGHYTEFWYWGQGTQVTMSS	high polyreactivity
QVQLQESGGGLVQAGGSLRLSCAASGSIFVSVTMGWYRPAPGKERELVASIGRGSTTNHADSVKGRFTISRDNAKNIVYLLMNSLKPEDTAVYYCAALESYGKYHGYWGQGTQVTVSS	low polyreactivity
QVQLQESGGGLVQAGGSLRLSCAASGSIFVSVTMGWYRQAPGKERELVASIGRGSTTNHADSVKGRFTISRDNAKNIVYLLMNSLKPEDTAVYYCAALESYGKYHGYWGQGTQVTVCS	low polyreactivity
QVQLQESGGGLVQAGGSLRLSCAASGSIFYKDDMGWYRQAPGKEREFVAGIDRGGTTNCAGSVKGRFTISRDNAKNTVYLQMISLKPEDTAVYYCAAYYPDIYPFIYRGQGTQVTVSS	high polyreactivity
QVQLQESGGGLVQAGGSLRLSCAASGSIFYVYGMGWYRQAPGKERELVAVINAGTNTNYADSVRGRFTISRDNAINSVLLQMNSLKPEDTAVYYCADDGNGYQAHEYWGQGNQVTVSS	high polyreactivity
QVQLQESGGGLVQAGGSLRLSCAASGSISRYYDMGWYRQAPGKEREFVAGISGGAITYYADSVKGRFTISRDNAKNTVDLQMNSLKPQDTAVYYCAADTGVYQYHSYWGQGTQVTVSS	low polyreactivity
QVQLQESGGGLVQAGGSLRLSCAASGSISRYYDMGWYRQAPGKEREFVAGISGGAITYYADSVKGRFTISRDNAKNTVYLQMNSLKPEDTAVYYCAADPGVYQYHSYWGQGTQVTVSS	low polyreactivity
QVQLQESGGGLVQAGGSLRLSCAASGSISRYYDMGWYRQAPGTEREFVAGISGGAITYYADRVKGRFTISRDNAKNTVYLQMNSLKPEDTAVDYCAADTGVYLYHSYWGQGTQVTVSS	low polyreactivity
QVQLQESGGGLVQAGGSLRLSCAASGSISYPRTMGWYRQAPGKEREFVAGIGVGGTTYYADSVKGRFTISRDNAKNTVYLQMHSLKPEDAAVFYFAVAAFYDKYYVYWGQGTQVTVSC	low polyreactivity
QVQLQESGGGLVQAGGSLRLSCAASGSIYDDTYMGWYRQAPGKERELVATIDSGSTTNYADSVKGRITISRDNAKNTVYLQMNSLKPEDTGVYYCAAADSHIDYFDYWGQGTQVTVSS	low polyreactivity
QVQLQESGGGLVQAGGSLRLSCAASGSIYDDTYMGWYRQAPGKERELVATIDSGSTTNYADSVKGRITISRDNAKYTVYLQMNSLKPEDTAVYYCAAADSHIDYFDYWGQGTQVTVSS	low polyreactivity
QVQLQESGGGLVQAGGSLRLSCAASGSSSILHSMGWYRQAPRKERELVAGINWGATTYYADSVKGRLTTSRDYAKNTVYLQMNSLKPEDTAVYYCAVPTYYPYPLLYWGQGTQVTVSS	low polyreactivity
